The results in this text go back to the supplement of paper PMC5998384.

Series [1] deals with HeLa Kyoto. In words: solubility in G1/S (NP-40 vs SDS abundance) (log2 ratio); higher = more soluble. The settings on record: cell cycle stage: G1/S.
The subject of series [2] is HeLa Kyoto. In words: melting temperature (median over replicates), in situ; higher = more thermally stable.
For series [3], the system named is HeLa Kyoto. Put plainly: solubility change mitosis vs G1/S (difference of NP-40 vs SDS log2 ratios) (log2 ratio difference); higher = more soluble in mitosis.
Series [4] relates to HeLa Kyoto. In words: thermal stability score vs G1/S (z-score of summed log2 fold changes over temperatures); higher = more thermally stable than in G1/S.
[5] abbreviates: cell cycle stage: early G1 (4.5 h after nocodazole release).
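Wherever melting temperature (median over replicates), in situ is given: HeLa Kyoto cells synchronized by double thymidine or nocodazole block, proteins quantified by TMT10plex mass spectrometry, three independent biological replicates.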
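Wherever solubility change mitosis vs G1/S (difference of NP-40 vs SDS log2 ratios) is given: synchronized HeLa Kyoto cells (double thymidine block for G1/S, nocodazole release for mitosis), protein amounts in NP-40 versus SDS lysates quantified by mass spectrometry, three biological replicates.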
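Wherever solubility in G1/S (NP-40 vs SDS abundance) is given: HeLa Kyoto cells arrested at G1/S by double thymidine block, proteins quantified by TMT10plex mass spectrometry in mild NP-40 versus SDS extracts, three biological replicates.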
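Wherever thermal stability score vs G1/S (z-score of summed log2 fold changes over temperatures) is given: synchronized HeLa Kyoto cells, proteins quantified by TMT10plex mass spectrometry, three biological replicates, mitosis taken 0.5 h after nocodazole release, G1/S directly after double thymidine block.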

CCBL2, sequence (chain, as listed by the source): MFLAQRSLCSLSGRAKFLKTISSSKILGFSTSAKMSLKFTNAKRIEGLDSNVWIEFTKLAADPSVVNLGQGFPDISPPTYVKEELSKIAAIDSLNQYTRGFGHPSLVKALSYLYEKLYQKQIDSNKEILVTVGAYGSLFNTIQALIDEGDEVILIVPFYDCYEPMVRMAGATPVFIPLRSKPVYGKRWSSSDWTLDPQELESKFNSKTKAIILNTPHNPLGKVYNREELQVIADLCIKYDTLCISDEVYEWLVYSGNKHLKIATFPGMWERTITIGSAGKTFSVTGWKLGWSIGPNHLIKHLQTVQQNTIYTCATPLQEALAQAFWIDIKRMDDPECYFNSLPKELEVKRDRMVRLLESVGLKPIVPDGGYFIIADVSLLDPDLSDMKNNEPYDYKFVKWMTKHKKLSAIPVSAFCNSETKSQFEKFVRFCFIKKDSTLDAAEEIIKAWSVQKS

With “MAAVVALSLRRRLPATTLGGACLQASRGAQTAAATAPRIKKFAIYRWDPDKAGDKPHMQTYEVDLNKCGPMVLDALIKIKNEVDSTLTFRRSCREGICGSCAMNINGGNTLACTRRIDTNLNKVSKIYPLPHMYVIKDLVPDLSNFYAQYKSIEPYLKKKDESQEGKQQYLQSIEEREKLDGLYECILCACCSTSCPSYWWNGDKYLGPAVLMQAYRWMIDSRDDFTEERLAKLQDPFSLYRCHTIMNCTRTCPKGLNPGKAIAEIKKMMATYKEKKASV [SDHB]”, in the series on HeLa Kyoto [1], the “solubility in G1/S (log2)” value was 0.659. Moreover, the results for the melting temperature in the series with HeLa Kyoto [2] (cell cycle stage: G1/S) and with HeLa Kyoto [2] (cell cycle stage: mitosis) were 54.7 °C and 56.3 °C, respectively. Also, the “solubility change mitosis (log2)” value in the series on HeLa Kyoto [3] was -0.00338. In addition, the thermal stability score in the series on HeLa Kyoto [4] (setting [5]) was -1.86; in the series with HeLa Kyoto [4] (cell cycle stage: mitosis), -2.8.
As to “MSNVSEERRKRQQNIKEGLQFIQSPLSYPGTQEQYAVYLRALVRNLFNEGNDVYREHDWNNSISQYTEALNIADYAKSEEILIPKEIIEKLYINRIACYSNMGFHDKVLEDCNIVLSLNASNCKALYRKSKALSDLGRYKKAYDAVAKCSLAVPQDEHVIKLTQELAQKLGFKIRKAYVRAELSLKSVPGDGATKALNHSVEDIEPDLLTPRQEAVPVVSLPAPSFSHEVGSELASVPVMPLTSILPLQVEESALPSAVLANGGKMPFTMPEAFLDDGDMVLGDELDDLLDSAPETNETVMPSALVRGPLQTASVSPSMPFSASLLGTLPIGARYAPPPSFSEFYPPLTSSLEDFCSSLNSFSMSESKRDLSTSTSREGTPLNNSNSSLLLMNGPGSLFASENFLGISSQPRNDFGNFFGSAVTKPSSSVTPRHPLEGTHELRQACQICFVKSGPKLMDFTYHANIDHKCKKDILIGRIKNVEDKSWKKIRPRPTKTNYEGPYYICKDVAAEEECRYSGHCTFAYCQEEIDVWTLERKGAFSREAFFGGNGKINLTVFKLLQEHLGEFIFLCEKCFDHKPRMISKRNKDNSTACSHPVTKHEFEDNKCLVHILRETTVKYSKIRSFHGQCQLDLCRHEVRYGCLREDECFYAHSLVELKVWIMQNETGISHDAIAQESKRYWQNLEANVPGAQVLGNQIMPGFLNMKIKFVCAQCLRNGQVIEPDKNRKYCSAKARHSWTKDRRAMRVMSIERKKWMNIRPLPTKKQMPLQFDLCNHIASGKKCQYVGNCSFAHSPEEREVWTYMKENGIQDMEQFYELWLKSQKNEKSEDIASQSNKENGKQIHMPTDYAEVTVDFHCWMCGKNCNSEKQWQGHISSEKHKEKVFHTEDDQYCWQHRFPTGYFSICDRYMNGTCPEGNSCKFAHGNAELHEWEERRDALKMKLNKARKDHLIGPNDNDFGKYSFLFKDLN [ZC3H7A]”, the “solubility in G1/S (log2)” value in the series with HeLa Kyoto [1] was -0.49. The melting temperature with HeLa Kyoto [2] (cell cycle stage: G1/S) was 48.5 °C; in the series with HeLa Kyoto [2] (cell cycle stage: mitosis), 47.7 °C. Moreover, the “solubility change mitosis (log2)” value in the series with HeLa Kyoto [3] was 0.169. The thermal stability score came out at 0.548 in the series on HeLa Kyoto [4] (setting [5]) and 2.36 in the series on HeLa Kyoto [4] (cell cycle stage: mitosis).
“MDTDLYDEFGNYIGPELDSDEDDDELGRETKDLDEMDDDDDDDDVGDHDDDHPGMEVVLHEDKKYYPTAEEVYGPEVETIVQEEDTQPLTEPIIKPVKTKKFTLMEQTLPVTVYEMDFLADLMDNSELIRNVTLCGHLHHGKTCFVDCLIEQTHPEIRKRYDQDLCYTDILFTEQERGVGIKSTPVTVVLPDTKGKSYLFNIMDTPGHVNFSDEVTAGLRISDGVVLFIDAAEGVMLNTERLIKHAVQERLAVTVCINKIDRLILELKLPPTDAYYKLRHIVDEVNGLISMYSTDENLILSPLLGNVCFSSSQYSICFTLGSFAKIYADTFGDINYQEFAKRLWGDIYFNPKTRKFTKKAPTSSSQRSFVEFILEPLYKILAQVVGDVDTSLPRTLDELGIHLTKEELKLNIRPLLRLVCKKFFGEFTGFVDMCVQHIPSPKVGAKPKIEHTYTGGVDSDLGEAMSDCDPDGPLMCHTTKMYSTDDGVQFHAFGRVLSGTIHAGQPVKVLGENYTLEDEEDSQICTVGRLWISVARYHIEVNRVPAGNWVLIEGVDQPIVKTATITEPRGNEEAQIFRPLKFNTTSVIKIAVEPVNPSELPKMLDGLRKVNKSYPSLTTKVEESGEHVILGTGELYLDCVMHDLRKMYSEIDIKVADPVVTFCETVVETSSLKCFAETPNKKNKITMIAEPLEKGLAEDIENEVVQITWNRKKLGEFFQTKYDWDLLAARSIWAFGPDATGPNILVDDTLPSEVDKALLGSVKDSIVQGFQWGTREGPLCDELIRNVKFKILDAVVAQEPLHRGGGQIIPTARRVVYSAFLMATPRLMEPYYFVEVQAPADCVSAVYTVLARRRGHVTQDAPIPGSPLYTIKAFIPAIDSFGFETDLRTHTQGQAFSLSVFHHWQIVPGDPLDKSIVIRPLEPQPAPHLAREFMIKTRRRKGLSEDVSISKFFDDPMLLELAKQDVVLNYPM [EFTUD2]”: the “solubility in G1/S (log2)” value in the series with HeLa Kyoto [1] was -0.443. Further, the values for the melting temperature with HeLa Kyoto [2] (cell cycle stage: G1/S) and in the series with HeLa Kyoto [2] (cell cycle stage: mitosis) were 57.4 °C and 56.2 °C, respectively. The “solubility change mitosis (log2)” value with HeLa Kyoto [3] stood at 0.215. The values for the thermal stability score with HeLa Kyoto [4] (setting [5]) and in the series on HeLa Kyoto [4] (cell cycle stage: mitosis) were -1.97 and -2.33, respectively.
In the case of “MRSARSTALNRGEQRAVRYYSHMKLNMAEEEDYMSDSFINVQEDIRPGLPMLRQIREARRKEEKQQEANLKNRQKSLKEEEQERRDIGLKNALGCENKGFALLQKMGYKSGQALGKSGGGIVEPIPLNIKTGKSGIGHEASLKRKAEEKLESYRKKIHMKNQAEEKAAEQFRMRLKNKQDEMKLEGDLRRSQRACQQLDVQKNIQVPREAWYWLRLEEETEEDEEEKEQDEDEYKSEDLSVLEKLQILTSYLREEHLYCIWCGTAYEDKEDLSSNCPGPTSADHD [GPATCH11]”, the “solubility in G1/S (log2)” value in the series on HeLa Kyoto [1] was 0.127. The melting temperature amounted to 52.1 °C with HeLa Kyoto [2] (cell cycle stage: G1/S) and 52.3 °C in the series with HeLa Kyoto [2] (cell cycle stage: mitosis). Also, in the series with HeLa Kyoto [3], the “solubility change mitosis (log2)” value came out at 0.138. The thermal stability score is -1.77 in the series with HeLa Kyoto [4] (setting [5]) and -0.0183 with HeLa Kyoto [4] (cell cycle stage: mitosis).
Turning to CCBL2, the “solubility in G1/S (log2)” value in the series on HeLa Kyoto [1] was found to be 0.16. Further, the melting temperature in the series with HeLa Kyoto [2] (cell cycle stage: G1/S) amounted to 57.2 °C; with HeLa Kyoto [2] (cell cycle stage: mitosis), 57.5 °C. The “solubility change mitosis (log2)” value in the series on HeLa Kyoto [3] was -0.21. Also, the thermal stability score was -0.947 in the series on HeLa Kyoto [4] (setting [5]) and -1.75 in the series on HeLa Kyoto [4] (cell cycle stage: mitosis).
